{"source": "paper PMC6580504", "about": "“A novel hydroxycinnamoyl transferase for synthesis of hydroxycinnamoyl spermine conjugates in plants” (BMC Plant Biology, 2019)", "key": {"SmSpmHT": {"biological_target": "T1, SmSpmHT (Solanum virginianum, UniProt A0A1I9J7Z8)", "T1 construct": "full-length ORF, 447 residues; N-terminal His-SUMO fusion from pRham N-His SUMO Kan, SUMO tag removed with SUMO Express Protease; bacterial expression", "T1 sequence (A0A1I9J7Z8 1-447)": "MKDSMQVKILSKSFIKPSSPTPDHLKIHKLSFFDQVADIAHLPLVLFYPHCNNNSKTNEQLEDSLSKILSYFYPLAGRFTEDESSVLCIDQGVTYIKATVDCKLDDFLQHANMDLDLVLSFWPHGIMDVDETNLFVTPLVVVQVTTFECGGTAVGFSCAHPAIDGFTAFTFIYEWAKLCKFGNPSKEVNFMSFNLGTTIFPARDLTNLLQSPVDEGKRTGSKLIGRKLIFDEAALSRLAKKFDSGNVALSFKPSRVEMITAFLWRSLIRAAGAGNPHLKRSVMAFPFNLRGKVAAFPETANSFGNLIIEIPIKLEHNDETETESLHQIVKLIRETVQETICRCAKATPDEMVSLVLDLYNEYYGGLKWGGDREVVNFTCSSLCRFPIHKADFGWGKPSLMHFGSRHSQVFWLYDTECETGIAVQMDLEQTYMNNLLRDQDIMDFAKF", "experiment": "spectrophotometric microplate assay", "format": "biochemical", "settings": "0.1 M Tris-HCl, 10 mM EDTA, pH 9.0, 30 °C"}, "purified protein [1]": {"substrate": "CC(C)(COP(=O)(O)OP(=O)(O)OC[C@H]1O[C@@H](n2cnc3c(N)ncnc32)[C@H](O)[C@@H]1OP(=O)(O)O)[C@@H](O)C(=O)NCCC(=O)NCCSC(=O)/C=C/c1ccc(O)cc1", "experiment": "purified protein", "format": "biochemical, Solanum richardii", "settings": "2.5 mM spermine, 0.1 M Tris-HCl, 10 mM EDTA, pH 9.0, 30 °C, acyl donor varied 0 to 240 μM"}, "purified protein [2]": {"substrate": "COc1cc(/C=C/C(=O)SCCNC(=O)CCNC(=O)[C@H](O)C(C)(C)COP(=O)(O)OP(=O)(O)OC[C@H]2O[C@@H](n3cnc4c(N)ncnc43)[C@H](O)[C@@H]2OP(=O)(O)O)ccc1O", "experiment": "purified protein", "format": "biochemical, Solanum richardii", "settings": "2.5 mM spermine, 0.1 M Tris-HCl, 10 mM EDTA, pH 9.0, 30 °C, acyl donor varied 0 to 240 μM"}, "purified protein [3]": {"substrate": "CC(C)(COP(=O)(O)OP(=O)(O)OC[C@H]1O[C@@H](n2cnc3c(N)ncnc32)[C@H](O)[C@@H]1OP(=O)(O)O)[C@@H](O)C(=O)NCCC(=O)NCCSC(=O)/C=C/c1ccc(O)c(O)c1", "experiment": "purified protein", "format": "biochemical, Solanum richardii", "settings": "2.5 mM spermine, 0.1 M Tris-HCl, 10 mM EDTA, pH 9.0, 30 °C, acyl donor varied 0 to 240 μM"}}, "data": [{"molecule": "NCCCNCCCCNCCCN", "note": "[spermine]", "values": [{"measurement": "spectrophotometric microplate assay", "setting": "SmSpmHT; acyl acceptor, 2.5 mM, hydroxycinnamoyl-CoA donor 120 μM", "value": "The recombinant proteins showed the same substrate specificity, pH preference, and catalytic activity as SrSpmHT"}]}, {"molecule": "CC(C)(COP(=O)(O)OP(=O)(O)OC[C@H]1O[C@@H](n2cnc3c(N)ncnc32)[C@H](O)[C@@H]1OP(=O)(O)O)[C@@H](O)C(=O)NCCC(=O)NCCSC(=O)/C=C/c1ccc(O)c(O)c1", "note": "[caffeoyl-CoA]", "values": [{"measurement": "spectrophotometric microplate assay", "setting": "SmSpmHT; acyl donor, 120 μM, spermine 2.5 mM", "value": "The recombinant proteins showed the same substrate specificity, pH preference, and catalytic activity as SrSpmHT"}]}, {"molecule": "SrSpmHT (Solanum richardii) (protein, full-length ORF, 447 residues; N-terminal His-SUMO fusion from pRham N-His SUMO Kan, SUMO tag removed with SUMO Express Protease) MKDSMQVNILSKSFIKPSSPTPDHLKIHKLSFFDQVADIAHLPLVLFYPHCNNNSKTNEQLEDSLSKILSYFYPLAGRFTEDESSVLCIDQGVTYIKATVDCKLDDFLQHANMDLDLVLSFWPHGIMDVDETNLFVTPLVVVQVTTFECGGTAVGFSCAHPAIDGFTAFTFIYEWAKLCKFGNPSKEVNFMSFNLGTTIFPARDLTNLLQSPVDEGKRTGSKLIGRKLIFDEAALSRLAKKFDSGNVALSFKPSRVEMITAFLWRSLIRAAGAGNPHLKRSVMAFPFNLRGKVAAFPETANSFGNLIIEIPIKLEHNDETETESLHQIVKLIRETVQETICRCAKATPDEMVSLVLDLYNEYYGGLKWGGDREVVNFTCSSLCRFPIHKADFGWGKPSLMHFGSRHSQVFWLYDTECETGIAVQMDLEQTYMNNLLRDQDIIDFAKF", "values": [{"measurement": "Km", "setting": "purified protein [1]", "value": "49.0 ± 1.2", "unit": "µM"}, {"measurement": "Vmax", "setting": "purified protein [1]", "value": "8.15 ± 0.204", "unit": "µmol/min/mg"}, {"measurement": "kcat", "setting": "purified protein [1]", "value": "8.5 ± 0.21", "unit": "s⁻¹"}, {"measurement": "kcat/Km", "setting": "purified protein [1]", "value": "173000 ± 1000", "unit": "M⁻¹ s⁻¹"}, {"measurement": "Km", "setting": "purified protein [2]", "value": "106.1 ± 9.0", "unit": "µM"}, {"measurement": "Vmax", "setting": "purified protein [2]", "value": "13.4 ± 0.48", "unit": "µmol/min/mg"}, {"measurement": "kcat", "setting": "purified protein [2]", "value": "13.9 ± 0.5", "unit": "s⁻¹"}, {"measurement": "kcat/Km", "setting": "purified protein [2]", "value": "132000 ± 6000", "unit": "M⁻¹ s⁻¹"}, {"measurement": "Km", "setting": "purified protein [3]", "value": "478.4 ± 46.5", "unit": "µM"}, {"measurement": "Vmax", "setting": "purified protein [3]", "value": "68.8 ± 6.08", "unit": "µmol/min/mg"}, {"measurement": "kcat", "setting": "purified protein [3]", "value": "71.5 ± 6.3", "unit": "s⁻¹"}, {"measurement": "kcat/Km", "setting": "purified protein [3]", "value": "150000 ± 1000", "unit": "M⁻¹ s⁻¹"}]}]}
